Numbering of substitutions follows the chain as printed. Blank lines part the entries; values can stand above or below the binder they belong to.
Legend:
[1] = biological target: T1, Syt4 C2AB (residues 151–425) (human, UniProt Q9H2B2-1 151-425); test: ITC; ARMS proteins (200 μM) in the syringe, Syt4 proteins (20 μM) in the cell; 25 °C; 50 mM Tris, 100 mM NaCl, 1 mM EDTA, 1 mM DTT, pH 7.8; one-site binding model; details: both partners purified
T1 construct: also called Syt4 CAB; source: E. coli BL21 (DE3), purified (Ni-NTA, size-exclusion chromatography)
T1 sequence (looked up): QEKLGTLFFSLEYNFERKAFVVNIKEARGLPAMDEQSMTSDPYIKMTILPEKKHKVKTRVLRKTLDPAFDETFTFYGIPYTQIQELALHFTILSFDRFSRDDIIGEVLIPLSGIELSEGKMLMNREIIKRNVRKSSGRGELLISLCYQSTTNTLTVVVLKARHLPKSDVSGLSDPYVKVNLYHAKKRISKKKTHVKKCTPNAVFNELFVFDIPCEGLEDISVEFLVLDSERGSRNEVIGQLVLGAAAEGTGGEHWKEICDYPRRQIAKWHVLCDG

Syt4 132-425 R283A,K284A = biological target: T2, Syt4 132-425 R283A,K284A (Homo sapiens); test: ITC
T2 chain: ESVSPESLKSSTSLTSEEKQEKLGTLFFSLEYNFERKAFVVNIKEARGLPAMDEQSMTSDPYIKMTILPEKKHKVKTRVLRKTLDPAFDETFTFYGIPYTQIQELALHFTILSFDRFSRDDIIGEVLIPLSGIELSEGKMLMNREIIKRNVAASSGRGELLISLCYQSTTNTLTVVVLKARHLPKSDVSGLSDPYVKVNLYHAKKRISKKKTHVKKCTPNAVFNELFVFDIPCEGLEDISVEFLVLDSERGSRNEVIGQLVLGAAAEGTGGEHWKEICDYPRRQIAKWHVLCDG

Syt4 132–425 Q186A = biological target: T3, Syt4 132–425 Q186A (human, UniProt Q9H2B2-1 132-425, Q186A); test: ITC
T3 sequence: T2 chain with Q55A, A152R, A153K

Syt4 132-425 R288A = biological target: T4, Syt4 132-425 R288A (Homo sapiens); test: ITC
T4 chain: T2 chain with A152R, A153K, R157A

Syt4 132–425 = biological target: T5, Syt4 132–425 (human, UniProt Q9H2B2-1 132-425); test: ITC
T5 chain: T2 chain with A152R, A153K

Syt4 132–425 K284A = biological target: T6, Syt4 132–425 K284A (human, UniProt Q9H2B2-1 132-425, K284A); test: ITC
T6 sequence: T2 chain with A152R

Syt4 132-425 K279A,R280A = biological target: T7, Syt4 132-425 K279A,R280A (Homo sapiens); test: ITC
T7 chain: T2 chain with K148A, R149A, A152R, A153K

[2] = biological target: T8, Syt4 132-425 K279A,R280A,R283A (Homo sapiens); test: ITC
T8 chain: T2 chain with K148A, R149A, A153K

Syt4 132-425 R283A = biological target: T9, Syt4 132-425 R283A (Homo sapiens); test: ITC
T9 chain: T2 chain with A153K

[3] = biological target: T10, full length of the cytoplasmic region of Syt4 (CD, residues 41–425) (human, UniProt Q9H2B2-1 41-425); test: ITC; ARMS proteins (200 μM) in the syringe, Syt4 proteins (20 μM) in the cell; 25 °C; 50 mM Tris, 100 mM NaCl, 1 mM EDTA, 1 mM DTT, pH 7.8; one-site binding model; details: both partners purified
T10 construct: also called Synaptotagmin-4 CD; source: E. coli BL21 (DE3), purified (Ni-NTA, size-exclusion chromatography)
T10 sequence (looked up): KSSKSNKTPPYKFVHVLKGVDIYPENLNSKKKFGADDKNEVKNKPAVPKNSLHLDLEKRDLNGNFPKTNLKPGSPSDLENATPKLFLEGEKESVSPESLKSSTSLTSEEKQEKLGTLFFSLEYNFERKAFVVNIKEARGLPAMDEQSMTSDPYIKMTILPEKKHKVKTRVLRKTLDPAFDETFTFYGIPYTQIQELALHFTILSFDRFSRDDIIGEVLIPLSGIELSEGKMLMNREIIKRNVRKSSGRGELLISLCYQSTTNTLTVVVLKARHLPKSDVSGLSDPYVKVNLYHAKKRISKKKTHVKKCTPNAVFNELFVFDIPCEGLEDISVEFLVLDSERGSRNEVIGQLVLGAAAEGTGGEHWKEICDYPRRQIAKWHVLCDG

Kd [1]: ~11 µM
B1: ARMS R1-8 (residues 1–270) (domain or fragment, rat, UniProt Q9EQG6 1-270, looked up)
chain: MSVLISQSVINYVEEENIPALKALLEKCKDVDERNECGQTPLMLAAEQGNVEIVKELLKNGANCNLEDLDNWTALISASKEGHIHIVEELLKSGASLEHRDMGGWTALMWACYKGRTDVVELLLSHGANPSVTGLYSVYPIIWAAGRGHADIVHLLLQNGAKVNCSDKYGTTPLVWAARKGHLECVKHLLAMGADVDQEGANSMTALIVAVKGGYTQSVKEILKRNPNVNLTDKDGNTALMIASKEGHIEIVQDLLDAGTYVNIPDRSGD
notes: ARMS (Kidins220), rat, UniProt Q9EQG6, residues 1-270: ankyrin repeats 1-8; also called ARMS ankyrin repeats 1–8; source: E. coli BL21 (DE3), purified (Ni-NTA, size-exclusion chromatography)

Kd (Syt4 132-425 R283A,K284A): 4 µM
Kd (Syt4 132–425 Q186A): 3 µM
Kd (Syt4 132-425 R288A): 10 µM
Kd (Syt4 132–425): 12 µM
Kd (Syt4 132–425 K284A): 3 µM
Kd (Syt4 132-425 K279A,R280A): 9 µM
Kd [2]: 19 µM
Kd (Syt4 132-425 R283A): 4 µM
Kd [3]: ~11 µM
B2: ARMS ankyrin repeats 1–11 (R1-11, residues 1–365) (domain or fragment, rat, UniProt Q9EQG6 1-365, looked up)
chain: MSVLISQSVINYVEEENIPALKALLEKCKDVDERNECGQTPLMLAAEQGNVEIVKELLKNGANCNLEDLDNWTALISASKEGHIHIVEELLKSGASLEHRDMGGWTALMWACYKGRTDVVELLLSHGANPSVTGLYSVYPIIWAAGRGHADIVHLLLQNGAKVNCSDKYGTTPLVWAARKGHLECVKHLLAMGADVDQEGANSMTALIVAVKGGYTQSVKEILKRNPNVNLTDKDGNTALMIASKEGHIEIVQDLLDAGTYVNIPDRSGDTVLIGAVRGGHVEIVRALLQKYADIDIRGQDNKTALYWAVEKGNATMVRDILQCNPDTEICTKDGETPLIKATKMRNIEVVELLLDKGAKVSAVD
notes: ARMS (Kidins220), rat, UniProt Q9EQG6, residues 1-365: ankyrin repeats 1-11; also called ARMS R1-11; ARMS R1-11 WT; source: E. coli BL21 (DE3), purified (Ni-NTA, size-exclusion chromatography)

— paper PMC10707181, “Neuronal Scaffold Protein ARMS Interacts with Synaptotagmin-4 C2AB through the Ankyrin Repeat Domain with an Unexpected Mode” (International Journal of Molecular Sciences, 2023)
